Measured values from patent publication US20150344570A1 (published 2015).

T1: FcγRIIa R (FcγRIIa allotype with Arg at position 131), extracellular domain with C-terminal His tag (human, UniProt P12318 34-217)
T1 construct: extracellular domain; made in FreeStyle293 cells; analyte in the Biacore assay; also called FcγRIIa type R; 2aR
T1 sequence (looked up): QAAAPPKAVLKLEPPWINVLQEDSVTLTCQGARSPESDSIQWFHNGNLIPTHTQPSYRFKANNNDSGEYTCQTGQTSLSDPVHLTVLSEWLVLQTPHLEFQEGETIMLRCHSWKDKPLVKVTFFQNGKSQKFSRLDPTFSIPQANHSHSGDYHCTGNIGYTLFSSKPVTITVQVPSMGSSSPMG

T2: FcγRIIb, extracellular domain with C-terminal His tag (human, UniProt P31994 43-217)
T2 construct: extracellular domain; made in FreeStyle293 cells; analyte in the Biacore assay; also called 2b; FcgRIIb
T2 sequence (looked up): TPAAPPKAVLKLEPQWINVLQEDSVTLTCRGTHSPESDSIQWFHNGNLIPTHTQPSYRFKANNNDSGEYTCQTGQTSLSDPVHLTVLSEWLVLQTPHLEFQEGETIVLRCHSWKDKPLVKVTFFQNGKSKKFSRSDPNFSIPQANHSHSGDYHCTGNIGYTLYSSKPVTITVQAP


What was measured:
[1] = biological target: T1, FcγRIIa R (FcγRIIa allotype with Arg at …); experiment: SPR (Biacore); He/Con_2aR divided by He/Con_2b, binding to FcγRIIa R against binding to FcγRIIb
Description: The heterodimerized antibodies He Abs in which one of the H chains was introduced with an alteration were assayed for their binding activities to each activating FcγR and inhibitory FcγR according to the method described in Example 4. […] The activating FcγRs in FIGS. 26, 27, 28, and 29 are FcγRIa, FcγRIIa (R), FcγRIIa (H), and FcγRIIIa, respectively.
Analysis of interaction between objective antibody and the FcγR was carried out using Biacore T100 (GE Healthcare). HBS-EP+ (GE Healthcare) was used as the running buffer, and the measurement temperature was set to 25° C. Chips produced by immobilizing the antigen peptide by the amine coupling method to a Series S Sencor Chip CM5 (GE Healthcare), or alternatively, chips produced by allowing preliminarily biotinylated antigen peptides to interact with and immobilize onto a Series S Sensor Chip SA (certified) (GE Healthcare) were used. Antibodies of interest were captured onto an antigen peptide-immobilized chip, and allowed to interact to each FcγR diluted with running buffer. To regenerate and repeatedly use the chip, the antibodies captured on the chip were washed off by reacting 10 mM glycine-HCl, pH 1.5.

[2] = biological target: T1, FcγRIIa R (FcγRIIa allotype with Arg at …); experiment: SPR (Biacore), antibody captured, FcγR analyte; vs GpH7-A5/GpH7-B3/GpL16-k0 = 100
[3] = biological target: T2, FcγRIIb, extracellular domain with …; experiment: as above

| Binder | He_2aR/2b (IIaR/IIb) [1] [ratio] | He/Con_2aR [2] | He/Con_2b [3] |
| --- | --- | --- | --- |
| GpH7-A5/GpH7-B3 variant G236_13S/GpL16-k0 (antibody, human IgG1, kappa, heterodimerized IgG1, mutation in one H chain only; also called He Ab) heavy 1: not shown heavy 2: not shown light: DIVMTQSPLSLPVTPGEPASISCQASESLVHSNRNTYLHWYLQKPGQSPQLLIYKVSNRFSGVPDRFSGSGSGTDFTLKISRVEAEDVGVYYCSQNTHVPPTFGQGTKVEIERTVAAPSVFIFPPSDEQLKSGTASVVCLLNNFYPREAKVQWKVDNALQSGNSQESVTEQDSKDSTYSLSSTLTLSKADYEKHKVYACEVTHQGLSSPVTKSFNRGEC | 1.41 | 136 relative (HeCon Ab = 100) | 96.7 relative (HeCon Ab = 100) |
| GpH7-A5/GpH7-B3 variant L234_01G/GpL16-k0 (antibody, human IgG1, kappa, heterodimerized IgG1, mutation in one H chain only; also called He Ab) heavy 1: not shown heavy 2: not shown light: DIVMTQSPLSLPVTPGEPASISCQASESLVHSNRNTYLHWYLQKPGQSPQLLIYKVSNRFSGVPDRFSGSGSGTDFTLKISRVEAEDVGVYYCSQNTHVPPTFGQGTKVEIERTVAAPSVFIFPPSDEQLKSGTASVVCLLNNFYPREAKVQWKVDNALQSGNSQESVTEQDSKDSTYSLSSTLTLSKADYEKHKVYACEVTHQGLSSPVTKSFNRGEC | 1.23 | 62.3 relative (HeCon Ab = 100) | 50.7 relative (HeCon Ab = 100) |
| GpH7-A5/GpH7-B3 variant G236_08L/GpL16-k0 (antibody, human IgG1, kappa, heterodimerized IgG1, mutation in one H chain only; also called He Ab) heavy 1: not shown heavy 2: not shown light: DIVMTQSPLSLPVTPGEPASISCQASESLVHSNRNTYLHWYLQKPGQSPQLLIYKVSNRFSGVPDRFSGSGSGTDFTLKISRVEAEDVGVYYCSQNTHVPPTFGQGTKVEIERTVAAPSVFIFPPSDEQLKSGTASVVCLLNNFYPREAKVQWKVDNALQSGNSQESVTEQDSKDSTYSLSSTLTLSKADYEKHKVYACEVTHQGLSSPVTKSFNRGEC | 2.45 | 65.8 relative (HeCon Ab = 100) | 26.8 relative (HeCon Ab = 100) |
| GpH7-A5/GpH7-B3 variant G236_12R/GpL16-k0 (antibody, human IgG1, kappa, heterodimerized IgG1, mutation in one H chain only; also called He Ab) heavy 1: not shown heavy 2: not shown light: DIVMTQSPLSLPVTPGEPASISCQASESLVHSNRNTYLHWYLQKPGQSPQLLIYKVSNRFSGVPDRFSGSGSGTDFTLKISRVEAEDVGVYYCSQNTHVPPTFGQGTKVEIERTVAAPSVFIFPPSDEQLKSGTASVVCLLNNFYPREAKVQWKVDNALQSGNSQESVTEQDSKDSTYSLSSTLTLSKADYEKHKVYACEVTHQGLSSPVTKSFNRGEC | 3.55 | 24.1 relative (HeCon Ab = 100) | 6.8 relative (HeCon Ab = 100) |

The next lines start with the values.

| He_2aR/2b (IIaR/IIb) [1] [ratio] | He/Con_2aR [2] | He/Con_2b [3] | Binder |
| --- | --- | --- | --- |
| 2.52 | 47.9 relative (HeCon Ab = 100) | 19 relative (HeCon Ab = 100) | GpH7-A5/GpH7-B3 variant G236_05P/GpL16-k0 (antibody, human IgG1, kappa, heterodimerized IgG1, mutation in one H chain only; also called He Ab) heavy 1: not shown heavy 2: not shown light: DIVMTQSPLSLPVTPGEPASISCQASESLVHSNRNTYLHWYLQKPGQSPQLLIYKVSNRFSGVPDRFSGSGSGTDFTLKISRVEAEDVGVYYCSQNTHVPPTFGQGTKVEIERTVAAPSVFIFPPSDEQLKSGTASVVCLLNNFYPREAKVQWKVDNALQSGNSQESVTEQDSKDSTYSLSSTLTLSKADYEKHKVYACEVTHQGLSSPVTKSFNRGEC |
| 1.78 | 103 relative (HeCon Ab = 100) | 57.8 relative (HeCon Ab = 100) | GpH7-A5/GpH7-B3 variant G236_14T/GpL16-k0 (antibody, human IgG1, kappa, heterodimerized IgG1, mutation in one H chain only; also called He Ab) heavy 1: not shown heavy 2: not shown light: DIVMTQSPLSLPVTPGEPASISCQASESLVHSNRNTYLHWYLQKPGQSPQLLIYKVSNRFSGVPDRFSGSGSGTDFTLKISRVEAEDVGVYYCSQNTHVPPTFGQGTKVEIERTVAAPSVFIFPPSDEQLKSGTASVVCLLNNFYPREAKVQWKVDNALQSGNSQESVTEQDSKDSTYSLSSTLTLSKADYEKHKVYACEVTHQGLSSPVTKSFNRGEC |
| 1.26 | 57.3 relative (HeCon Ab = 100) | 45.5 relative (HeCon Ab = 100) | GpH7-A5/GpH7-B3 variant G236_06M/GpL16-k0 (antibody, human IgG1, kappa, heterodimerized IgG1, mutation in one H chain only; also called He Ab) heavy 1: not shown heavy 2: not shown light: DIVMTQSPLSLPVTPGEPASISCQASESLVHSNRNTYLHWYLQKPGQSPQLLIYKVSNRFSGVPDRFSGSGSGTDFTLKISRVEAEDVGVYYCSQNTHVPPTFGQGTKVEIERTVAAPSVFIFPPSDEQLKSGTASVVCLLNNFYPREAKVQWKVDNALQSGNSQESVTEQDSKDSTYSLSSTLTLSKADYEKHKVYACEVTHQGLSSPVTKSFNRGEC |
| 2.81 | 87.1 relative (HeCon Ab = 100) | 31 relative (HeCon Ab = 100) | GpH7-A5/GpH7-B3 variant G236_07I/GpL16-k0 (antibody, human IgG1, kappa, heterodimerized IgG1, mutation in one H chain only; also called He Ab) heavy 1: not shown heavy 2: not shown light: DIVMTQSPLSLPVTPGEPASISCQASESLVHSNRNTYLHWYLQKPGQSPQLLIYKVSNRFSGVPDRFSGSGSGTDFTLKISRVEAEDVGVYYCSQNTHVPPTFGQGTKVEIERTVAAPSVFIFPPSDEQLKSGTASVVCLLNNFYPREAKVQWKVDNALQSGNSQESVTEQDSKDSTYSLSSTLTLSKADYEKHKVYACEVTHQGLSSPVTKSFNRGEC |
